Test results taken from publication PMC10963267 (2023).
Numbering of substitutions follows the chain as printed. In names and notes the source's numbering stands.

B1: anti-HEL nanobody C1 (VHH)
VHH: QVQLQESGGGLVQAGGSLRLSCAASGSIFWAGYMGWYRQAPGKEREFVAAIDYGANTYYADSVKGRFTISRDNAKNTVYLQMNSLKPEDTAVYYCAVDRQPYYRRDNSHLYWGQGTQVTVSS
B2: anti-HEL nanobody C2 (VHH)
VHH: QVQLQESGGGLVQAGGSLRLSCAASGNISADASMGWYRQAPGKEREFVAAIARGATTYYADSVKGRFTISRDNAKNTVYLQMNSLKPEDTAVYYCAVDQYDVTKRYIGHIYWGQGTQVTVSS
B3: anti-HER2 Fab HER20006 (Fab, V domains shown)
VH: QVQLVQSGAEVKKPGESLKISCKGSGYSFTSYWIAWVRQMPGKGLEYMGLIYPGDSDTKYSPSFQGQVTISVDKSVSTAYLQWSSLKPSDSAVYFCARHDVGWCTSSNCAKWPEYFQHWGQGTLVTVSS
VL: QSVLTQPPSVSAAPGQKVTISCSGSSSNIGNNYVSWYQQLPGTAPKLLIYGHTNRPAGVPDRFSGSKSGTSASLAISGFRSEDEADYYCASWDYTLSGWVFGGGTKLTVL
B4: anti-HER2 scFv G98A, ribosome-displayed on the flow cell (scFv, V domains shown)
VH: B3 VH with G102A, W103Y, T105S
VL: B3 VL
B5: anti-HER2 Fab G98A (Fab, V domains shown)
VH: B3 VH with G102A, W103Y, T105S
VL: B3 VL
B6: anti-HER2 Fab HER20010 (Fab, V domains shown)
VH: B3 VH with G102A, W103Y, T105S, N108R, A110L, K111D
VL: B3 VL
B7: anti-HER2 Fab HER20009 (Fab, V domains shown)
VH: B3 VH with G102A, W103Y, T105S, N108R, A110L, K111E
VL: B3 VL
B8: anti-HER2 Fab HER20008 (Fab, V domains shown)
VH: B3 VH with G102A, W103Y, T105D, S107D, N108R
VL: B3 VL
B9: anti-HER2 Fab HER20015 (Fab, V domains shown)
VH: B3 VH with W103Y, T105D, S106T, S107P, N108T, A110D
VL: B3 VL
B10: anti-HER2 Fab HER20011 (Fab, V domains shown)
VH: B3 VH with W103L, T105S
VL: B3 VL
B11: anti-HER2 Fab HER20007 (Fab, V domains shown)
VH: B3 VH with W103Y, T105M
VL: B3 VL
B12: anti-HEL nanobody M15, ribosome-displayed on the flow cell (VHH)
VHH: QVQLQESGGGLVQAGGSLRLSCAASGTISSQKLMGWYRQAPGKEREFVAAINDGATTNYADSVKGRFTISRDNAKNTVYLQMNSLKPEDTAVYYCAAYYDVRGYYWGTFGYWGQGTQVTVSS
B13: anti-HEL nanobody M5, ribosome-displayed on the flow cell (VHH)
VHH: QVQLQESGGGLVQAGGSLRLSCAASGSIFYYTDMGWYRQAPGKEREFVASIGYGGITYYADSVKGRFTISRDNAKNTVYLQMNSLKPEDTAVYYCAVQRSFESYGYWGHVYWGQGTQVTVSS
B14: anti-HEL nanobody M6, ribosome-displayed on the flow cell (VHH)
VHH: B13 VHH with F29S, Y30R, Y31D, T32P, G52S, Y53G, G55T, I56T

These binders were tested against T1, HER2 extracellular domain (Homo sapiens, UniProt P04626) (assay: flow).

Going from HDVGQCDSSNCATWPEYFQH [HER20019] to HDVGQCDSSNCAAWPEYFQH [HER20017], the “apparent Kd (screen)” value rises from 19.6 nM to 1350 nM (69-fold).

HDVGYCDTPTCATWPEQFDH [HER20022] and HDVGQCDSSNCETWPEYFQH [HER20024] are within 1.5-fold of each other in “apparent Kd (screen)” value: 14.8 nM for the first, 17.9 nM for the second.

First: HDVGYCDTPTCDKWPEYFQH [HER20015]
Second: HDVGYCSSHRCETWPEYFQH [HER20012]
The “apparent Kd (screen)” value of the first is 2.4-fold lower: 31 nM for the first, 74.2 nM for the second.

Going from HDVGPCDTSTCAKWPEYFQH [HER20016] to HDVAYCDDPTCAYWPEYFQH [HER20014], the “apparent Kd (screen)” value falls from 106 nM to 65.9 nM (1.6-fold).

Going from HDVGYCDTPTCNKWPEYFQH [HER20025] to HDVGYCDTPTCDKWPEYFTH [HER20020], the “apparent Kd (screen)” value rises from 8.78 nM to 14.3 nM (1.6-fold).

HDVGLCSSSNCAKWPEYFQH [HER20011] and HDVGYCMSSNCAKWPEYFQH [HER20007] are within 1.5-fold of each other in “apparent Kd (screen)” value: 40.6 nM for the first, 41.1 nM for the second.

HDVGYCSTSRCLTWPEYFQH [HER20013] and HDVAYCSSSRCLEWPEYFQH [HER20009] are within 1.5-fold of each other in “apparent Kd (screen)” value: 10 nM for the first, 11.2 nM for the second.

Going from HDVAYCDSDRCAKWPEYFQH [HER20008] to HDVAYCSSSRCLDWPEYFQH [HER20010], the “apparent Kd (screen)” value falls from 44.5 nM to 17.7 nM (2.5-fold).

Going from HDTGYCDTPTCAKWPEYFQH [HER20021] to HDVGYCDSSMCQMWPEYFQH [HER20026], the “apparent Kd (screen)” value falls from 17.7 nM to 4.78 nM (3.7-fold).

Compared with HDVGWCTSSNCAKWPEYFQH [HER20006], HDVGYCSESACQQWPEYFQH [HER20018] is 6.2-fold lower in “apparent Kd (screen)” value: 151 nM for the first, 24.4 nM for the second.

Going from HDVGYCSSSNCAKWPEYFQH [HER20002] to HDVGYCDTESCEKWPEYFQH [HER20023], the “apparent Kd (screen)” value rises from 19.4 nM to 31.6 nM (1.6-fold).

What follows are binders tested against T2, hen egg lysozyme (HEL), biotinylated (hen, UniProt P00698 19-147, biotin) (assay: BLI).
T2 sequence (P00698 19-147): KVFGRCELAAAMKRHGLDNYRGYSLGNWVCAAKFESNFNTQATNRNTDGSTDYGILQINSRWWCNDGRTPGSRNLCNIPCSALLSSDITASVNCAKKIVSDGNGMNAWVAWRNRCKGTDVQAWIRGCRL

B1 and B2 are within 1.5-fold of each other in Kd: 67.4 nM for the first, 59.8 nM for the second.

What follows are binders tested against T3, human epidermal growth factor receptor 2 (HER2), biotinylated (human, UniProt P04626 23-652, biotin) (assay: BLI).

For B3, the Kd was 0.85 nM.

Each binder was assayed against T1, HER2 extracellular domain (assay: Octet).

Going from HDVGQCDSSNCATWPEYFQH [HER20019] to HDVGQCDSSNCAAWPEYFQH [HER20017], the Kd rises from 0.79 nM to 1.46 nM (1.8-fold). The first binds more tightly here.

Compared with HDVGYCDTPTCATWPEQFDH [HER20022], HDVGQCDSSNCAKWPEYFQH [HER20004] is 19-fold higher in Kd: 0.183 nM for the first, 3.44 nM for the second. The first binds more tightly here.

Going from HDVGYCDTPTCDKWPEYFQH [HER20015] to HDVGYCSSHRCETWPEYFQH [HER20012], the Kd rises from 0.2 nM to 0.591 nM (3-fold).

HDVGPCDTSTCAKWPEYFQH [HER20016] and HDVAYCDDPTCAYWPEYFQH [HER20014] are within 1.5-fold of each other in Kd: 1.41 nM for the first, 0.996 nM for the second.

Going from HDVGYCDTPTCDKWPEYFTH [HER20020] to HDVAYCSSSRCLTWPEYFQH [HER20003], the Kd rises from 0.294 nM to 2.88 nM (9.8-fold). The first binds more tightly here.

Compared with HDVGYCMSSNCAKWPEYFQH [HER20007], HDVAYCSSSRCLEWPEYFQH [HER20009] is 2-fold lower in Kd: 2.08 nM for the first, 1.04 nM for the second. The second binds more tightly here.

First: HDVAYCDSDRCAKWPEYFQH [HER20008]
Second: HDVAYCSSSRCLDWPEYFQH [HER20010]
The Kd of the first is 2.5-fold higher: 2.68 nM for the first, 1.06 nM for the second.

Compared with HDVAYCDTPTCAKWPEYFQH [HER20005], HDTGYCDTPTCAKWPEYFQH [HER20021] is 8.7-fold lower in Kd: 1.86 nM for the first, 0.215 nM for the second.

Going from HDVGYCDSSMCQMWPEYFQH [HER20026] to HDVGWCTSSNCAKWPEYFQH [HER20006], the Kd rises from 0.465 nM to 0.85 nM (1.8-fold).

HDVGYCSESACQQWPEYFQH [HER20018] and HDVGYCSSSNCAKWPEYFQH [HER20002] are within 1.5-fold of each other in Kd: 2.26 nM for the first, 1.65 nM for the second.

HDVGYCDTESCEKWPEYFQH [HER20023] gave a Kd of 0.578 nM.

Each binder was assayed against T3, human epidermal growth factor receptor … (assay: not given).

With B4 the Kd was 24 nM.

What follows are binders tested against T3, human epidermal growth factor receptor … (assay: SPR).

For B5, the Kd was 320 nM.

Target: T3, human epidermal growth factor receptor …
Assay: BLI
Remark: another data set of the same source

B6 and B7 are within 1.5-fold of each other in Kd: 1.06 nM for the first, 1.04 nM for the second.

Going from B8 to B9, the Kd falls from 2.68 nM to 0.2 nM (13-fold). The second binds more tightly here.

Going from B10 to B11, the Kd falls from 5.25 nM to 2.08 nM (2.5-fold). The second binds more tightly here.

The binders below were run against T2, hen egg lysozyme (HEL), biotinylated (assay: deep screening KDapp).

Compared with B1, B12 is 180-fold lower in Kd: 11900 nM for the first, 64.4 nM for the second.

First: B13
Second: B14
The Kd of the first is 1.7-fold higher: 106 nM for the first, 63.6 nM for the second. The second binds more tightly here.

B2 gave a Kd of 11900 nM.

Target: T3, human epidermal growth factor receptor …
Assay: SPR
Remark: another data set of the same source

Binder B4 has a Kd of 320 nM.
